# Laboratory results taken from publication PMC4238996 (PLoS Neglected Tropical Diseases, 2014).
# B1: unnamed (parent)
# chain 1: MQQPTEHTTPMDSLAPPALVIKTPHQAFTAHAAQGPVVIGRDAPAQVRIPDERISRAHVRVTYTSTGWVAVDMSSNGTFVNGVQQATIPITDGLTIHLGHPLEGIAISFSYTIAPPLAVDDATEHIEDTSDPKMVRVGAEIAARREELGLPKRELDRRGVVGQATMTDIEKGRRFPRPFTRDKIEAVLGWPRGHIMWLYEQDIQPDEERTHVLTATTPVPEITGATKMALKGFTAAADSLPPEDDPAFTDRVGALLADLRELESVAASATHSAHGTSAAALVLSDVRKLYKALMLRAAGAPGATLGQRFYAARYRAELTTQDAAAAAGLPVAIIEAAEADAPLDPAATAAVQALLTSLLSQR
# chain 2: MALPLGTVVAGYVIEGVLGSGGMGTVYLARHPTLPRSDALKILSAELSQDEQFRVRFIREADLAATLSHPNIVTVFNRGETDDGQLWIAMQYVEGTTASDLHATVLTPARVAAIITDVGAALDYAHSRRVLHRDIKPSNFLVSADHERVLLADFGIARAFDDTTLTAIGSLVGTASYAAPEAIQGGSVDQRADVYSLGCALFRLLTGRAPYEDLRGPAMLMAHVLQPIPRPSHIVVGLPPAIDDVIAVAMAKDPAARFPTAGALAGAARAALSGQPLPQAPPGGPKTRIWAAPPLSYPTTRPPGISGGAISPAGFAGAAHPGLAGAASSSDERGGPRAPRRRKR
# Variants of: B1
# Assay: ELISA
# Conditions: with partner chain of the complex shown; read at the highest MupFHA concentration point, x about 2320 µM; parent: 1; read off a plot
row,Variant,response
1,chain 2 T260A,1 O.D. 490 nm
2,chain 2 T174A,0.58 O.D. 490 nm
3,chain 2 S170A,0.43 O.D. 490 nm

# Variants of: B1
# Assay: sandwich ELISA
# Conditions: with partner chain of the complex shown; His6-PknQ adsorbed on a 96-well plate; equimolar amounts of GST-tagged substrates; parent: 2; read off a plot
row,Variant,response
1,chain 1 S55A,0.38 O.D. 490 nm
2,chain 1 R41A,0.95 O.D. 490 nm

# Variants of: B1
# Assay: ELISA
# Conditions: with partner chain of the complex shown; read at the highest MupFHA concentration point, x about 1160 µM; parent: 1.6; read off a plot
row,Variant,response
1,chain 2 S170A,0.21 O.D. 490 nm
2,chain 2 K41M,0.26 O.D. 490 nm
3,chain 2 T166A,1.5 O.D. 490 nm
